As a reminder, the EC50 is the concentration giving half of the maximal effect.

In series [1] the target is human Glucagon-Like Peptide-1 receptor (hGLP-1-R) (Homo sapiens, UniProt P43220). Kind of series: hGLP-1-R functional cAMP assay. To be noted: read-out: EC50 GLP-1 Receptor Assay. On the technique in general: Cyclic AMP is a second messenger, typically raised through Gs and lowered through Gi signalling.
Description: (§1) The hGIP-R functional assay uses hGIP-R (Usdin, T. B., Gruber, C., Modi, W. and Bonner, T. I., GenBank: AAA84418.1) cloned into pcDNA3.1 (Promega)-NeoR plasmid. The hGIP-R-pcDNA3.1/Neo plasmid is transfected into Chinese Hamster Ovary cells, CHO-S, for suspension cultures and selected in the presence of 500 μg/mL Geneticin (Invitrogen).
Series [2] can be described thus: Stability in co-formulation with GLP-1R agonist (SEC-HPLC, RP-HPLC). To be noted: four weeks. The series is classed as physicochemical. The procedure:
Examples 1 and 3 are prepared and dialyzed against C6.5 (10 mM Citrate pH 6.5) using the same method as described above for preparation into T7 buffer. Compounds are formulated separately at 1 mg/mL peptide in buffer C6.5, C6.5M (10 mM Citrate, 46.4 mg/mL D-mannitol, pH 6.5), C6.5T (10 mM Citrate, 0.02% polysorbate-80, pH 6.5), and C6.5MT (10 mM Citrate, 46.4 mg/mL D-mannitol, 0.02% polysorbate-80, pH 6.5). A stock concentration of 46.5 mg/mL of dulaglutide in C6.5 is used to formulate dulaglutide at 3 mg/mL in C6.5 and C6.5MT. Co-formulations in C6.5MT are prepared having 3 mg/mL dulaglutide and 1 mg/mL Example 1, or 3 mg/mL dulaglutide and 1 mg/mL Example 3. Each formulated sample is transferred to three vials and maintained at 4° C., 25° C. and 40° C. Samples are assessed every two weeks for a total of four weeks. Samples are visually assessed for turbidity and phase separation. Stability is assessed by RP-HPLC and SEC-HPLC as described above. Both described HPLC methods give good separation of Example compounds and dulaglutide main peaks as well as all degradation peaks produced by stressing the sample at pH 9 and 40° C. for 3 days.
(In general: SEC sorts molecules by how far they enter the pores of the column.)

Series [3] deals with T1, glucose-dependent insulinotropic polypeptide receptor, hGIP-R (Homo sapiens, UniProt P48546).
T1 sequence (P48546 22-466): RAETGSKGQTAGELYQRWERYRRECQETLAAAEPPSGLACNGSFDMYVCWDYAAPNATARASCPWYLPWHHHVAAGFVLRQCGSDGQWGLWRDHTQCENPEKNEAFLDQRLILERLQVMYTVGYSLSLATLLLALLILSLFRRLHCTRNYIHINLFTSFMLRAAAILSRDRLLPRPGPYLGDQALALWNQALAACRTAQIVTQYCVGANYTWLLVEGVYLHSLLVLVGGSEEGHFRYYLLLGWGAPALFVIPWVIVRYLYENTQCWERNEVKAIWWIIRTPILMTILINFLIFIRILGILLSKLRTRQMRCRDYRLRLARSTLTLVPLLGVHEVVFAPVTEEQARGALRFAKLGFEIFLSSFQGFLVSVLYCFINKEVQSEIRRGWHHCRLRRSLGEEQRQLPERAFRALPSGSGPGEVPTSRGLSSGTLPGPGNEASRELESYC
Description: hGIP-R functional cAMP assay. The note with it: read-out: EC50 GIP Receptor Assay.
Description: as §1

In series [4] the target is T2, human glucagon receptor (hGcg-R) (Homo sapiens, UniProt P47871).
T2 construct: expressed in transfected cells; host or cells: 293HEK cells, hygromycin-selected
T2 sequence (P47871 26-477): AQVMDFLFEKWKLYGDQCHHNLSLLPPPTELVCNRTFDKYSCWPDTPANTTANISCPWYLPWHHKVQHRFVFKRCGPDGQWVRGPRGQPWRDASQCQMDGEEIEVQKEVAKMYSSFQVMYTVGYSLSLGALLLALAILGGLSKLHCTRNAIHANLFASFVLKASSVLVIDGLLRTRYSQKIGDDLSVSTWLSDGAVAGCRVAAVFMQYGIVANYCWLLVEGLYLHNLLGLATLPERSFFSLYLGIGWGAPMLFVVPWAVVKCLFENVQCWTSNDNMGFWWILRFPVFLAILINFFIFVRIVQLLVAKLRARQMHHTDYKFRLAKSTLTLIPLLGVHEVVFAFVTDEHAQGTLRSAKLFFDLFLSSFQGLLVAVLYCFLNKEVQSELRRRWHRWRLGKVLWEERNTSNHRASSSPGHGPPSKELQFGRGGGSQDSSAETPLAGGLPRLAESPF
Description: hGcg-R functional cAMP assay. The series is classed as cell-based. To be noted: read-out: EC50 Gcg Receptor Assay.

Where two headings read alike, the source gives them in different places.

Chain of human Glucagon-Like Peptide-1 receptor (hGLP-1-R) (P43220 24-463): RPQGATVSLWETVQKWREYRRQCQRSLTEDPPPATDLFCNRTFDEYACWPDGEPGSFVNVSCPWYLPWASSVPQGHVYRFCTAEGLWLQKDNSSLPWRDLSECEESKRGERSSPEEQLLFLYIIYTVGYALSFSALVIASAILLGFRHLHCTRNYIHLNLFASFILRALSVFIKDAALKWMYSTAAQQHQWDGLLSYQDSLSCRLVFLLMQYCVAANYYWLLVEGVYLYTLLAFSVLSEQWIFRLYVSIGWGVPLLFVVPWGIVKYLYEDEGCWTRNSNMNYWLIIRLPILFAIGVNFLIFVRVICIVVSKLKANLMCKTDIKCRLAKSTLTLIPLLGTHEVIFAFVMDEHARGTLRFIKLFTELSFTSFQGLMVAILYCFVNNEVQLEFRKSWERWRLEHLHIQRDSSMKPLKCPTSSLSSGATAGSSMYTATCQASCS

Consider dulaglutide, for which the EC50 in series [1] (sample C6.5-4 C.-4 wk) is 0.37 ± 0.11 nM; in series [1] (sample C6.5-40 C.-4 wk), 0.31 ± 0.17 nM; in series [1] (sample C6.5MT-4 C.-4 wk), 0.4 ± 0.14 nM; in series [1] (sample C6.5MT-40 C.-4 wk) it was 0.29 ± 0.09 nM; in series [3] (sample C6.5-4 C.-4 wk), more than 100 nM; in series [3] (sample C6.5-40 C.-4 wk), more than 100 nM. The EC50 in series [3] (sample C6.5MT-4 C.-4 wk) is more than 100 nM; in series [3] (sample C6.5MT-40 C.-4 wk), more than 100 nM; in series [4] (sample C6.5-4 C.-4 wk) it was 51.9 ± 68.1 nM; in series [4] (sample C6.5-40 C.-4 wk), more than 100 nM; in series [4] (sample C6.5MT-4 C.-4 wk), 54 ± 65 nM; in series [4] (sample C6.5MT-40 C.-4 wk) it was more than 100 nM. For the same substance, the “GLP-1-Fc Δ % Main Peak” value in series [2] (RP-HPLC, C6.5, 4° C.) was −1.45%; in series [2] (RP-HPLC, C6.5, 25° C.) it was more than −10%; in series [2] (RP-HPLC, C6.5, 40° C.), −9.96%; in series [2] (RP-HPLC, C6.5MT, 4° C.) it was −0.46%; in series [2] (RP-HPLC, C6.5MT, 25° C.) it was −0.8%; in series [2] (RP-HPLC, C6.5MT, 40° C.) it was −7.47%. The “GLP-1-Fc Δ % Main Peak” value in series [2] (SEC-HPLC, C6.5, 4° C.) was 0.19%; in series [2] (SEC-HPLC, C6.5, 25° C.) it was −0.54%; in series [2] (SEC-HPLC, C6.5, 40° C.), more than −10%; in series [2] (SEC-HPLC, C6.5MT, 4° C.) it was 0.29%; in series [2] (SEC-HPLC, C6.5MT, 25° C.), −0.87%; in series [2] (SEC-HPLC, C6.5MT, 40° C.), −0.83%.

Values taken from US9884093B2 (Eli Lilly and Company, priority 2015, dated 2018).
